Assay results published in the supplement of paper PMC9732359.
± gives the uncertainty stated by the source.

Assay: protein stability index of a GFP-peptide fusion (yeast GPS) (PSI 1-4); higher = more stable; sorted into four equal gates, so the index is relative within each strain
How it was run: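 Yeast carrying a pooled library were grown to mid-log phase in leucine-free medium. Each library plasmid expresses Cherry and has a tiled 17-residue yeast protein peptide fused downstream of GFP. Cells were sorted into four equal gates by GFP/Cherry ratio, and plasmids from each gate were PCR-amplified, Illumina-sequenced and assigned to strains by barcode. Summing, across gates, the read frequency times the gate number gave each peptide's protein stability index.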

VNQDSTYKYFEVILVDP [RPL15A]
protein stability index (doa10∆): 3.21 ± 0.068 | protein stability index (pdr5∆): 3.43 ± 0.082 | protein stability index (san1∆): 3.12 ± 0.048 | protein stability index (ubr1∆): 3.19 ± 0.057

VPISTSQTNNSFLSGVK [SIR4]
protein stability index (doa10∆): 2.56 ± 0.054 | protein stability index (pdr5∆): 2.73 ± 0.07 | protein stability index (san1∆): 2.63 ± 0.067 | protein stability index (ubr1∆): 2.95 ± 0.057

VPKSIAKTLTYPEVVTP [RPO21]
protein stability index (doa10∆): 2.51 ± 0.05 | protein stability index (pdr5∆): 2.76 ± 0.044 | protein stability index (san1∆): 2.39 ± 0.039 | protein stability index (ubr1∆): 2.62 ± 0.047

VPNILSLDMNSMNKELI [NUT1]
protein stability index (doa10∆): 2.14 ± 0.075 | protein stability index (pdr5∆): 1.96 ± 0.084 | protein stability index (san1∆): 1.46 ± 0.27 | protein stability index (ubr1∆): 1.91 ± 0.075

VPVTKLGRLVKAGKITT [RPS2]
protein stability index (doa10∆): 3.13 ± 0.091 | protein stability index (pdr5∆): 3 ± 0.15 | protein stability index (san1∆): 3.03 ± 0.11 | protein stability index (ubr1∆): 3.45 ± 0.078

VQARDNSQVFGVARIYA [RPS14B]
protein stability index (doa10∆): 2.39 ± 0.074 | protein stability index (pdr5∆): 2.3 ± 0.054 | protein stability index (san1∆): 2.78 ± 0.047 | protein stability index (ubr1∆): 2.91 ± 0.059

VQFGLNEETFTVPELEI [ARP9]
protein stability index (doa10∆): 3.17 ± 0.076 | protein stability index (pdr5∆): 3.02 ± 0.096 | protein stability index (san1∆): 2.78 ± 0.11 | protein stability index (ubr1∆): 3.19 ± 0.082

VQGELKPTVILKLLKEN [FAS1]
protein stability index (doa10∆): 2.36 ± 0.17 | protein stability index (pdr5∆): 2.53 ± 0.14 | protein stability index (san1∆): 2.75 ± 0.19 | protein stability index (ubr1∆): 2.99 ± 0.28

VQIGAEIILDFLQDKVQ [CSI1]
protein stability index (doa10∆): 3.03 ± 0.085 | protein stability index (pdr5∆): 3.07 ± 0.066 | protein stability index (san1∆): 2.88 ± 0.061 | protein stability index (ubr1∆): 3.06 ± 0.047

VQMAKILRKELSEEKEV [MCD1]
protein stability index (doa10∆): 3.37 ± 0.21 | protein stability index (pdr5∆): 3.17 ± 0.27 | protein stability index (san1∆): 2.9 ± 0.12

VQPPLDKFPYKKLELPK [SWP82]
protein stability index (doa10∆): 2.79 ± 0.074 | protein stability index (pdr5∆): 2.11 ± 0.055 | protein stability index (san1∆): 2.73 ± 0.061 | protein stability index (ubr1∆): 2.93 ± 0.055

VRATFRNNLPAKTFGAS [RPL33A]
protein stability index (doa10∆): 2.85 ± 0.097 | protein stability index (pdr5∆): 3.05 ± 0.16 | protein stability index (san1∆): 3.2 ± 0.11 | protein stability index (ubr1∆): 3.31 ± 0.098

VRAVSITSFGFGQKGGQ [FAS2]
protein stability index (doa10∆): 2.92 ± 0.19 | protein stability index (pdr5∆): 2.96 ± 0.23 | protein stability index (san1∆): 1.74 ± 0.21 | protein stability index (ubr1∆): 3.31 ± 0.27

VRCKDCGHRILLKARTK [RPC10]
protein stability index (doa10∆): 2.55 ± 0.12 | protein stability index (pdr5∆): 2.64 ± 0.11 | protein stability index (san1∆): 2.56 ± 0.1 | protein stability index (ubr1∆): 2.87 ± 0.072

VRDKLDEYQAAVEQRKK [DPB4]
protein stability index (doa10∆): 3.42 ± 0.097 | protein stability index (pdr5∆): 3.37 ± 0.066 | protein stability index (san1∆): 3.31 ± 0.055 | protein stability index (ubr1∆): 3.33 ± 0.073

VRDPWSIDFRTYRCSIK [SRB2]
protein stability index (doa10∆): 2.35 ± 0.11 | protein stability index (pdr5∆): 2.41 ± 0.12 | protein stability index (san1∆): 1.47 ± 0.13 | protein stability index (ubr1∆): 2.31 ± 0.083

VRIIKHTLDIINVLTDQ [RPS5]
protein stability index (doa10∆): 2.11 ± 0.053 | protein stability index (pdr5∆): 2.46 ± 0.059 | protein stability index (san1∆): 2.62 ± 0.053 | protein stability index (ubr1∆): 2.4 ± 0.044

VRIMKAKRNLPHTTLVN [CDC53]
protein stability index (doa10∆): 1.9 ± 0.093 | protein stability index (pdr5∆): 2.23 ± 0.07 | protein stability index (san1∆): 1.53 ± 0.16 | protein stability index (ubr1∆): 1.77 ± 0.072

VRKYDLNICRQCFREKA [RPS29B]
protein stability index (doa10∆): 2.12 ± 0.22 | protein stability index (pdr5∆): 2.67 ± 0.092 | protein stability index (san1∆): 2.02 ± 0.19 | protein stability index (ubr1∆): 2.49 ± 0.11

VRRRFARGMTSKPAGFM [RPS15]
protein stability index (doa10∆): 2.9 ± 0.071 | protein stability index (pdr5∆): 2.89 ± 0.077 | protein stability index (san1∆): 2.94 ± 0.1 | protein stability index (ubr1∆): 3.07 ± 0.075

VRSGVSKSAPSKKISNT [YAR002W/NUP60]
protein stability index (doa10∆): 3.28 ± 0.085 | protein stability index (pdr5∆): 3.25 ± 0.088 | protein stability index (san1∆): 3.26 ± 0.049 | protein stability index (ubr1∆): 3.38 ± 0.056

VRTDTTYPAGFMDVITL [RPS4A]
protein stability index (doa10∆): 2.37 ± 0.11 | protein stability index (pdr5∆): 2.57 ± 0.1 | protein stability index (san1∆): 2.92 ± 0.1 | protein stability index (ubr1∆): 2.78 ± 0.098

VRVRTTKIPQIGDKFAS [RPB2]
protein stability index (doa10∆): 2.55 ± 0.068 | protein stability index (pdr5∆): 2.68 ± 0.072 | protein stability index (san1∆): 3.13 ± 0.064 | protein stability index (ubr1∆): 2.66 ± 0.035

VSEKAFLLTQSKVSIEQ [RPN7]
protein stability index (doa10∆): 3.21 ± 0.18 | protein stability index (ubr1∆): 2.8 ± 0.14

VSIRQNQYKLVFYQVTP [RPL22B]
protein stability index (doa10∆): 1.95 ± 0.087 | protein stability index (pdr5∆): 1.69 ± 0.051 | protein stability index (san1∆): 2.15 ± 0.06 | protein stability index (ubr1∆): 1.88 ± 0.064

VSKADILLSHHRASPAD [POP5]
protein stability index (doa10∆): 2.34 ± 0.15 | protein stability index (pdr5∆): 3.26 ± 0.16 | protein stability index (san1∆): 3.18 ± 0.054 | protein stability index (ubr1∆): 2.91 ± 0.1

VSKPAFSFGAKANEKKE [YJL041W/NSP1]
protein stability index (doa10∆): 3.07 ± 0.15 | protein stability index (pdr5∆): 2.78 ± 0.24 | protein stability index (san1∆): 2.95 ± 0.11 | protein stability index (ubr1∆): 2.94 ± 0.16

VSLLKKNWQNVGSLVVK [RPL1A]
protein stability index (doa10∆): 1.15 ± 0.049 | protein stability index (pdr5∆): 1.39 ± 0.056 | protein stability index (san1∆): 1.36 ± 0.12 | protein stability index (ubr1∆): 1.32 ± 0.053

VSNISCLTGTVAARMFH [ECM29]
protein stability index (doa10∆): 1.66 ± 0.042 | protein stability index (pdr5∆): 1.59 ± 0.039 | protein stability index (san1∆): 2.28 ± 0.087 | protein stability index (ubr1∆): 2.19 ± 0.045

VSPTNVMGTPLTNMMSP [PGD1]
protein stability index (doa10∆): 2.77 ± 0.1 | protein stability index (san1∆): 2.92 ± 0.091 | protein stability index (ubr1∆): 3.26 ± 0.093

VSSAKFSGKYLKYLTKK [RPL22B]
protein stability index (doa10∆): 2.82 ± 0.25 | protein stability index (pdr5∆): 2.52 ± 0.2 | protein stability index (san1∆): 2.59 ± 0.12 | protein stability index (ubr1∆): 2.66 ± 0.18

VSSPESEKNKRQSKSSG [ITC1]
protein stability index (doa10∆): 3.03 ± 0.059 | protein stability index (pdr5∆): 3.17 ± 0.052 | protein stability index (san1∆): 2.98 ± 0.045 | protein stability index (ubr1∆): 3.14 ± 0.038

VSSSSRHHRKTEKEEDA [ISW2]
protein stability index (doa10∆): 2.66 ± 0.064 | protein stability index (pdr5∆): 2.81 ± 0.057 | protein stability index (san1∆): 2.05 ± 0.058 | protein stability index (ubr1∆): 2.86 ± 0.054

VSVIAPESQGQHEQQKQ [YMR153W/NUP53]
protein stability index (doa10∆): 2.92 ± 0.085 | protein stability index (pdr5∆): 3.15 ± 0.097 | protein stability index (san1∆): 2.91 ± 0.068 | protein stability index (ubr1∆): 2.94 ± 0.068

VSVPVSGQKTNRQVMHK [SIR3]
protein stability index (doa10∆): 2.58 ± 0.13 | protein stability index (pdr5∆): 3.27 ± 0.14 | protein stability index (san1∆): 3.05 ± 0.13 | protein stability index (ubr1∆): 2.86 ± 0.17

VSYKDYSIFLENENILI [SMC1]
protein stability index (doa10∆): 2.62 ± 0.13 | protein stability index (pdr5∆): 2.81 ± 0.1 | protein stability index (ubr1∆): 2.59 ± 0.086

VTDDDRLWLKKVMEEEE [POP8]
protein stability index (doa10∆): 1.43 ± 0.066 | protein stability index (pdr5∆): 1.89 ± 0.07 | protein stability index (san1∆): 1.57 ± 0.089 | protein stability index (ubr1∆): 2.07 ± 0.07

VTEDGSIVTVVSSAKFS [RPL22B]
protein stability index (doa10∆): 2.79 ± 0.1 | protein stability index (pdr5∆): 3 ± 0.12 | protein stability index (san1∆): 2.99 ± 0.1 | protein stability index (ubr1∆): 2.87 ± 0.087

VTFSFFNPQDTEENIKG [RRP45]
protein stability index (doa10∆): 2.15 ± 0.081 | protein stability index (pdr5∆): 2.55 ± 0.08 | protein stability index (san1∆): 3.08 ± 0.08 | protein stability index (ubr1∆): 3.19 ± 0.076

VTGGKKALVLFVPVPAL [RPS7B]
protein stability index (doa10∆): 1.58 ± 0.061 | protein stability index (pdr5∆): 2.03 ± 0.1 | protein stability index (san1∆): 2.14 ± 0.11 | protein stability index (ubr1∆): 1.52 ± 0.054

VTKLNVLVDEIKSQYYS [YIL149C/MLP2]
protein stability index (doa10∆): 2.36 ± 0.066 | protein stability index (pdr5∆): 2.33 ± 0.052 | protein stability index (san1∆): 2.35 ± 0.074 | protein stability index (ubr1∆): 2.28 ± 0.037

VTLYWNNAKLLTFMTCN [ESC2]
protein stability index (doa10∆): 1.89 ± 0.041 | protein stability index (pdr5∆): 2.09 ± 0.041 | protein stability index (san1∆): 2.34 ± 0.045 | protein stability index (ubr1∆): 2.57 ± 0.029

VTNSLSNEEKEKIKMKL [GAL11]
protein stability index (san1∆): 3.1 ± 0.13

VTNSMRQTLAPYAVLSQ [YJR042W/NUP85]
protein stability index (doa10∆): 2.33 ± 0.065 | protein stability index (pdr5∆): 2.83 ± 0.054 | protein stability index (san1∆): 2.53 ± 0.051 | protein stability index (ubr1∆): 2.62 ± 0.048

VTRFTTWNGSPFDNSTE [YJL039C/NUP192]
protein stability index (doa10∆): 2.44 ± 0.079 | protein stability index (pdr5∆): 2.17 ± 0.052 | protein stability index (san1∆): 2.3 ± 0.099 | protein stability index (ubr1∆): 2.41 ± 0.067

VTRKQEDARRNPNPSSQ [RPC37]
protein stability index (doa10∆): 3.33 ± 0.087 | protein stability index (pdr5∆): 3.44 ± 0.094 | protein stability index (san1∆): 3.19 ± 0.081 | protein stability index (ubr1∆): 3.54 ± 0.061

VTTFLNWCAEPEHDERK [CYT1]
protein stability index (doa10∆): 3.41 ± 0.089 | protein stability index (pdr5∆): 3.39 ± 0.092 | protein stability index (san1∆): 3.08 ± 0.18 | protein stability index (ubr1∆): 3.15 ± 0.077

VTTFVFTGQGSQEQGMG [FAS1]
protein stability index (doa10∆): 3.46 ± 0.15 | protein stability index (pdr5∆): 3.49 ± 0.13 | protein stability index (san1∆): 3.48 ± 0.14 | protein stability index (ubr1∆): 3.68 ± 0.18

VTVDQYVNVAISIYNML [SSN2]
protein stability index (doa10∆): 1.72 ± 0.057 | protein stability index (pdr5∆): 1.88 ± 0.062 | protein stability index (san1∆): 1.52 ± 0.12 | protein stability index (ubr1∆): 1.44 ± 0.052

VTVSIKSRIVKVVGPRG [RPL9A]
protein stability index (doa10∆): 2.08 ± 0.051 | protein stability index (pdr5∆): 2.63 ± 0.048 | protein stability index (san1∆): 2.47 ± 0.052 | protein stability index (ubr1∆): 2.75 ± 0.032

VTYSRVSKKVDVRRLKK [BRN1]
protein stability index (pdr5∆): 1.32 ± 0.14 | protein stability index (ubr1∆): 3.23 ± 0.15

VVDILSANGYLNATTAM [BRR2]
protein stability index (doa10∆): 2.75 ± 0.21 | protein stability index (pdr5∆): 3.3 ± 0.22 | protein stability index (san1∆): 3.17 ± 0.16 | protein stability index (ubr1∆): 3.06 ± 0.2
